{
  "source": "patent US20260226189A1",
  "about": "(PHILOGEN S P A, published 2026)",
  "key": {"[1]": {"molecular_target": "T1, CEACAM6 transiently expressed on CHO cells (UniProt P40199 35-320, limits assumed)", "T1 construct": "whole, on cells", "T1 sequence (looked up)": "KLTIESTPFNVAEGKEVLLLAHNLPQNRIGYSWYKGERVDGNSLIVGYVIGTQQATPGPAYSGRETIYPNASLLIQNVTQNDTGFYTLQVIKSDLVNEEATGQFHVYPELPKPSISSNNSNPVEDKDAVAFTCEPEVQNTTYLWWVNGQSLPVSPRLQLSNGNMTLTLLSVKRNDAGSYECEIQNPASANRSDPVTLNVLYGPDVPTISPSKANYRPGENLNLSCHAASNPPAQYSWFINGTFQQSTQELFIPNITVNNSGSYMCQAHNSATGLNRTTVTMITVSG", "test": "flow cytometry contour plots (SSC against fluorescence) on CHO cells transiently expressing CEACAM6"}, "[2]": {"molecular_target": "T2, CEACAM1 transiently expressed on CHO cells (UniProt P13688 35-526, limits assumed)", "T2 construct": "whole, on cells", "T2 sequence (looked up)": "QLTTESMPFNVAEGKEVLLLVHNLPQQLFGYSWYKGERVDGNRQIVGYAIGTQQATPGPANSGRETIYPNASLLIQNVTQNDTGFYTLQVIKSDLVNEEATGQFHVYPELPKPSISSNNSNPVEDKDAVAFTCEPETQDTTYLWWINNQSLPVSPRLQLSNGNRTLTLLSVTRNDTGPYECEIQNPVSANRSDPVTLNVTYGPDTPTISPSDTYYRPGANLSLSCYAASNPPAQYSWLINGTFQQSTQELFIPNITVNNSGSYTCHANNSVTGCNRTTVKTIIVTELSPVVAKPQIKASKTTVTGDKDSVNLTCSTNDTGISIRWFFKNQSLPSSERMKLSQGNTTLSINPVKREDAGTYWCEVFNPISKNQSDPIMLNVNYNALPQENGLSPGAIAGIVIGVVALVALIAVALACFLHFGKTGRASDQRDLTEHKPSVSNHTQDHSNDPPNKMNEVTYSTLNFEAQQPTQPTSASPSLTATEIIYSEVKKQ", "test": "flow cytometry contour plots (SSC against fluorescence) on CHO cells transiently expressing CEACAM1"}},
  "data": [
    {"binder": "PEA2 antibody as used in Example 8 (flow cytometry on transfected CHO cells) (antibody, V domains shown, also called antibody PEA2) VH: EVQLLESGGGLVQPGGSLRLSCAASGFTFSRTAMSWVRQAPGKGLEWVSAIDYDGGVTYYADSVKGRFTISRDNSKNTLYLQMNSLRAEDTAVYYCAKLTYARFDYWGQGTLVTVSS VL: EIVLTQSPGTLSLSPGERATLSCRASQSVSQNHLAWYQQKPGQAPRLLIYLASRRHTGIPDRFSGSGSGTDFTLTISRLEPEDFAVYYCQQSGRVPWTFGQGTKVEIK", "values": [
      {"measurement": "binding result", "setting": "[1]", "value": "no binding (tested: 50 nM)"},
      {"measurement": "binding result", "setting": "[2]", "value": "no binding (tested: 50 nM)"}
    ]}
  ]
}
